The DeepSol protein solubility set

Assay: soluble on expression in E. coli; label from the status in PepcDB or PDB records
With “HQQLNSLPTMEGPPTFNPPVPYFGRLQGGLTARRTIIIKGYVPPTGKSFAINFKVGSSGDIALHINPRMGNGTVVRNSLLNGSWGSEEKKITHNPFGPGQFFDLSIRCGLDRFKVYANGQHLFDFAHRLSAFQRVDTLEIQGDVTLSYVQI” the “soluble on expression in E. coli” value was “soluble”.
With “HRPKRIESAVISSFSPVINSPMRDYLGKGLDHLATHSRYDMGRLINDTIGKHLPSLFKRFNYRHVSTLDGHEYDQMHYHFSQILELDPDNYLTAGQQIKAPVLFINGAWDEYTSASDATQFSRYLQNCSFSTIEATGHFLDMEHKAACNDSKQALMKFLQ” the “soluble on expression in E. coli” value was “not soluble”.
With “HVGYPLLLKWLPLKPKANDEGEHFAERHYKASASDNKLPSVTIIIPAYNEEQWIAEKIRNLASLDYPRDKLKVVIACDGCTDKTAEIAQDTIQEAICSDTLFIVNDHSINRGKVALINEEMKHVTSDITALSDTSALVSCDSLLLASQHYQNEKVGVVNATYQIMRTSNQGEAAYWQYQSRVKHQESLLGSTIGSHGAFYTFRTKLFEPLEAGTINDDFILPMRIVLRGFTSVYEPKMLALELEQSSDDADFKRRLRISAGNMQQLMQLKKLLLPRYRGTAFAFLSGKVLR” the “soluble on expression in E. coli” value was “not soluble”.
For “IEEGKIVFAVGGAPNEIEYWKGVIAEFEKKYPGVTVELKRQATDTEQRRLDLVNALRGKSSDPDVFLMDVAWLGQFIASGWLEPLDDYVQKDNYDLSVFFQSVINLADKQGGKLYALPVYIDAGLLYYRKDLLEKYGYSKPPETWQELVEMAQKIQSGERETNPNFWGFVWQGKQYEGLVCDFVEYVYSNGGSLGEFKDGKWVPTLNKPENVEALQFMVDLIHKYKISPPNTYTEMTEEPVRLMFQQGNAAFERNWPYAWGLHNADDSPVKGKVGVAPLPHFPGHKSAATLGGWHIGISKYSDNKALAWEFVKFVESYSVQKGFAMNLGWNPGRVDVYDDPAVVSKSPHLKELRAVFENAVPRPIVPYYPQLSEIIQKYVNSALAGKISPQEALDKAQKEAEELVKQYS”, the “soluble on expression in E. coli” value was “soluble”.
For “IEVAAIQGNVPRMGLDFNAQRRAVLANHARETLKLDEQVDLVIWPENSSDVNPFSDAQARAIIDGAVEHVQAPILVGTITVDEVGPRNTMQVFDPVEGAAEYHNKKFLQPFGEYMPFREFLRIFSPYVDSAGNFQPGDGTGVVEMNAANLGRAVTVGVMTCYEVIFDRAGRDAIANGAEFLTTPTNNATFGFTDMTYQQLAMSRMRAIEFDRAVVVAATSGVSAIVNPDGSISQNTRIFEAATLTESIPLKDTVTIAARVGFY”, the “soluble on expression in E. coli” value was “not soluble”.
In the case of “IHDDPVEQRDADVAMEKSHRARNERKKNKNHTPSEHPAAAAMHEEKKKVSIEDLVAAVVIEDDPQPEPDVVPTPADDDVMDIVSAALDRAYEEDPDEPSGSDYLPLEEKPQTYAEAVEEFERSPRRKRKTRGNSVSDVPPRKADFEKPEPQPEPEVVVEKVSSRGRRRAVRRTVVEATPEVVAPTETVESSRGRRRAVRKKMAPQPVQTEAVVEDKHEVSAPSQGGRGRRRASRRAPRR”, the “soluble on expression in E. coli” value is reported as “not soluble”.
For “IIGGREVIPHSRPYMASLQRNGSHLCGGVLVHPKWVLTAAHCLAQRMAQLRLVLGLHTLDSPGLTFHIKAAIQHPRYKPVPALENDLALLQLDGKVKPSRTIRPLALPSKRQVVAAGTRCSMAGWGLTHQGGRLSRVLRELDLQVLDTRMCNNSRFWNGSLSPSMVCLAADSKDQAPCKGDSGGPLVCGKGRVLAGVLSFSSRVCTDIFKPPVATAVAPYVSWIRKVTGRSALEHHHHHH”, the “soluble on expression in E. coli” value was “soluble”.
In the case of “IKPGAKMGVIGSGIASVYAKEALQELGLEASFLKIGTYPVPKKLILELLSTVDTVLIFEELEPVVEEQVRILAQEAGLEVSVLGKEGGFVSREGELDVSAFLEALRKAFDLDIEPDSGKVPLELAPRPPSLCAGCSHRATFYSMKKVFGKDAIYPSDIGCYTLGIQSGTVETTLCMGSSISIASGLYHAGEKRPICCSIGDSTFFHTGMNSLLNAVFNKANITVTILDNRITAMTGHQPNPGVGFTVTGEPTVEVSLAELCKAMGAGFVTVV”, the “soluble on expression in E. coli” value is reported as “not soluble”.
With “IPIPSALEARLDAYVALLQQWQAKTNLVAPSTLPQLWTRHVADSLQLVSLMPHARRWLDFGSGGGFPGVVLACAMADVGGHVTLVERIAKKAAFLREALRVAGAPGTVILADIGDNVDRFPQALDCITARAVAPLHQLIGFAEPLMTPGTTKALFLKGQDVDAELTETTKYWKFQPKLHASVTGGQGWIVEIDHIER” the “soluble on expression in E. coli” value was “not soluble”.
In the case of “IQLQQATQLHFSELGKLLDDLRVEKHINEVRLKLTPSFAFKWLVPKLESFQLENPEIQVQIFAEGALVNSDLKDYDVAIDYGLHPYRDHDAELILDEKLLPVMSPKYLEDHRWLKTPFGDQTSSMSANQWQAATLLHDAMPWEKATRDYEWLYWASAMGFDFKTDVGHFFNRTDMAMSAAEAGVGIAMARMALIEDELTTKRLVSPFAPIPANAGYYLIMNTRSQSTERFREWLLKQIESRR”, the “soluble on expression in E. coli” value is reported as “not soluble”.
With “IRNVGITFETRPDWAREEHVDEFLRLGGTKVEIGVQSVYDFVLSRMQRGHGVAEIVRANRVLRDSAFKVGFHMMPHLPGADSELDLRGFKKLFDDQRFRPDYLKIYPTLVTEGTPLYRMWKSGEYQALSDEEAAELVADIKAVLPKWVRLQRIQRDIPAHQIFAGVR” the “soluble on expression in E. coli” value was “not soluble”.
For “IRRVLVPVDTSEERARNQAKYLTSLPNIPDSVEATVLFVFPHQDYKGAPSHDFEEVDAAVTAAEHLEAKGISVERVAVGGEVGRKILDAATDRDADSIVIGGRKRSGIANVLLGGTTQDIMLAAERPVTLTG”, the “soluble on expression in E. coli” value was “not soluble”.
With “IVGGKVCPKGECPWQVLLLVNGAQLCGGTLINTIWVVSAAHCFDKIKNWRNLIAVLGEHDLSEHDGDEQSRRVAQVIIPSTYVPGTTNHDIALLRLHQPVVLTDHVVPLCLPERTFSERTLAFVRFSLVSGWGQLLDRGATALELMVLNVPRLMTQDCLQQSRKVGDSPNITEYMFCAGYSDGSKDSCKGDSGGPHATHYRGTWYLTGIVSWGQGCATVGHFGVYTRVSQYIEWLQKLMRSEPRPGVLLRAPFP” the “soluble on expression in E. coli” value was “soluble”.
In the case of “IVHREHHESREEVSVSSGKNNPFYFNSDRWFRTLYRNEWGHIRVLQRFDQRSKQMQNLENYRVVEFKSKPNTLLLPHHADADFLLVVLNGTAVLTLVNPDSRDSYILEQGHAQKIPAGTTFFLVNPDDNENLRIIKLAIPVNNPHRFQDFFLSSTEAQQSYLRGFSKNILEASFDSDFKEINRVLFGEERQQQQGEESREEGVIVELKREQIQELMKHAKSSSRKELSSQDEPFNLRNSKPIYSNKFGRWYEMTPEKNPQLKDLDVFISSVDMKEGALLLPHYSSKAIVIMVINEGEAKIELVGLSDQQQQKQQEESLEVQRYRAELSEDDVFVIPAAYPVAINATSNLNFFAFGINAENNRRNFLAGGKDNVMSEIPTEVLEVSFPASGKKVEKLIKKQSESHFVDAQPEQQQREEGHKGRKGSLSSILGSLY”, the “soluble on expression in E. coli” value is reported as “soluble”.
For “KDIYASMETARREGKSFNTWKKGLVDEMERKGWVAGRDKKLGRGLDGTLLADPKTGEYFGTPRRLNTIYRVNMQAAYSGARYQRMMDNVDNRPYWKYSAVSDSRTRPAHLALNGRVYRYDAPFWATFYPPNGFNCRCTVI”, the “soluble on expression in E. coli” value was “not soluble”.
With “KESILAVLLYLFEYYFSENADLVRDRDSLQNSLIQVGFSPAEINKAFEWLDALAANRPTLTNPRVNGPVRVLHGPELDKLDVESRGFLLFLEQQGILNTEQRELVLDRAMALDQEELDLDDMKWVVLMVLFNQPGAEAAYAWMETQMFGNEPEQLH” the “soluble on expression in E. coli” value was “not soluble”.
With “KGKKVILFAPTFRGSGHGTAHYPFFKIDFERLARYCEKNNAVVLFKMHPFVKNRLNIADKHKQYFVDVSDFREVNDILFITDLLISDYSSLIYEYAVFKKPMIFYAFDLEDYITTRDFYEPYESFVPGKIVQSFDALMDALDNEDYEGEKVIPFLDKHFKYQDGRSSERLVRNLFG” the “soluble on expression in E. coli” value was “not soluble”.
With “KIGFKLGGGFEYAFDNTWSLQPSLFLSTKGAKKDGNSINAMYLELPVMAAARFNVADNTNIVVNAGPYLACGIAGKTKIDLGNDTERKYDTFGDDALKRFDAGLGVGVALELGKVIVGLDGQFGLVDVEKIGNPKNTNFSIVLGYKF” the “soluble on expression in E. coli” value was “not soluble”.
With “KILEREFSMNEQLFKDLFDRAVDGIVLFDKDGGFIDANLSFCKSFEINHNELSHLSLYEFIDSGSRKDFDNIWKALNRKGKAKGELPVKLRSGVQKLFEFTITSNIISGFYMSIMRDIT” the “soluble on expression in E. coli” value was “not soluble”.
With “KKIKVYIELDLGGPITVGFPTHISDGISLLGSTNIFDDISEAYFTPKDEEILKRDPDIIIYEPKRLTDYEKERFYSILRKRDLFQLLNKRLIFTKGDYLAHMGPSFITDVLIWLKSVL” the “soluble on expression in E. coli” value was “not soluble”.
In the case of “KLEEEPYLKGTVNTVIYHNDTNLYTVLKVKVTETSEAIEDKAVSVTGYFPALQEEETYTFYGKIVTHPKFGLQFQAEHFKKEIPTTKEGIIQYLSSDLFEGIGKKTAEEIVKKLGDSAINKILADASVLYDVPRLSKKKADTLAGALQRHQGLEQIMISLNQFGFGPQLSMKIYQAYESETLEKIQENPYQLVKDVEGIGFGKADELGSRMGLSGNHPERVKAAILYTLETTCLSEGHTYIETEQLIIDTQSLLNQSAREGQRITEMDAANAIIALGENKDIVIEDGRCYFPSLFYAEQNVAKRVKHIASQTEYENQFPESEFLLALGELEERMDVQYAPSQKEAIQKALSSPMLLLTGGPGTGKTTVIRGIVELYGELHGVSLDPSAYKKDEAFPIVLAAPTGRAAKRMSESTGLPAVTIHRLLGWNGAEGFTHTEDQPIEGKLLIIDEASMLDIWLANHLFKAIPDHIQIIIVGDEDQLPSVGPGQVLRDLLASQVIPTVRLTDIYRQAEGSSIVELAHQMKNGLLPNNLTAPTKDRSFIRCGGSQIKEVVEKVVANALKKGYTAKDIQVLAPMYRGKAGINELNVMLQDILNPPKEKRRELKFGDVVYRTGDKILQLVNQPENNVFNGDIGEITSIFYAKENTEKEDMAVVSFDGNEMTFTKKDFNQFTHAYCCSIHKSQGSEFPIVVLPVVKGYYRMLRRNLLYTAITRAKKFLILCGEEEALEWGVKNNDATVRQTSLKNRLSVQVEEMDAELEALQKELPFSVHDANIGMEGITPFDFM”, the “soluble on expression in E. coli” value is reported as “not soluble”.
For “KLFEHTVLYDSGDAFFELKGNASMKLSPKAAIEVCNEAAKKGLWILGIDGGHWLNPGFRIDSSASWTYDMPEEYKSKIPENNRLAIENIKDDIENGYTAFIITLKM”, the “soluble on expression in E. coli” value was “soluble”.
For “KNFPVLHLHREDFHDIRGTISLHLKTGFPMGFQMSVMCIGQLSMQTVVNSLGTAAVAGYTAASKADQLSVLVNNAMMTAISNYVAQNFGAGKRERIRQGVR”, the “soluble on expression in E. coli” value was “not soluble”.
With “KNTDLVAEDSICFPIDEHTYYASKSIFQFEENGHEYLSFLDAEYSQKINIYDIKNQKLIKTILLQKEGPNGMNVLSGCHPLNLNHFIITSWNGTFSLVNDKGEIEKKFDFWEKGVNFQEFDHISFSSYSYKPAIIKDSILYFSQSFLKHPRKKSDWNKIPMFAFANLNTGKTGWSELRYPLIFNKDEDFKNVKLYDPEICYTYTGKDVVISLGQYDSIMVSSDFKHKISYNAKSRYLAHAYPHLQDGQIDLFKNIQIQGKLPHYSHLMYDKYRKVFYRFALMPDDNIKPFSNNPHQSFSIIILNKDYEIIGETKFPGNTYTHHLCFVGKKGLYISENNENNPQFDENKLVFRCFTLQDRKK” the “soluble on expression in E. coli” value was “soluble”.
With “KPEWMMIHRILNHSVDKKGHVHYLIKWRDLPYDQASWESEDVEIQDYDLFKQSYWNH” the “soluble on expression in E. coli” value was “soluble”.
For “KPGFQLGVTVDYEIGKHWMLMSGLSWLQNRSTMKMMDHMVTYFPKTEIKMNNLILPLKMGYNIRVSDKLSLIPSVGVYASYGFGAGNCSLDVIHQEGDNITTEPAKWKPLDGFSYKAGEPNNSGNLQAFRRWDYGGIVGMKAVIADHYTISFDYRVGIKKIQAQNGLRNSTFQFSVGYRF”, the “soluble on expression in E. coli” value was “not soluble”.
In the case of “KQSKLTLMSESLRNDGRIWVPKKLEDAKALQAGTKKPTDIPDADRDFYLERRYPAFGNLVPRDVASRAAKERCDAGFGVNNTGLAVFLDFKYAIDRLGEDVVRARYGNLFDMYEEITDENPYKTPMMIFPA”, the “soluble on expression in E. coli” value is reported as “soluble”.
